Measured values published in article PMC9771362.

Legend:
[1] = target: Chaetomium thermophilum dynactin p150^Glued coiled-coil 1B, p150_(CC1B) (residues 478-680) (Chaetomium thermophilum); test: SEC-MALS; complexes of IC fragments (IC_(1-88)/IC_(100-260); IC_(1-88)/p150_(CC1B)) and p150_(CC1B) alone; Superdex 200; conditions not given
[2] = target: Chaetomium thermophilum dynactin p150^Glued coiled-coil 1B, p150_(CC1B) (residues 478-680) (Chaetomium thermophilum); test: AUC; sedimentation equilibrium, dimer to monomers; three concentrations in the range 15-60 µM, 10,000, 14,000 and 18,000 rpm, 20°C; global fit to a monomer-dimer self-association model
[3] = target: Chaetomium thermophilum dynein intermediate chain IC_(100-260) (Chaetomium thermophilum); test: SEC-MALS; complexes of IC fragments (IC_(1-88)/IC_(100-260); IC_(1-88)/p150_(CC1B)) and p150_(CC1B) alone; Superdex 200; conditions not given
[4] = target: Chaetomium thermophilum dynactin p150^Glued coiled-coil 1B, p150_(CC1B) (residues 478-680) (Chaetomium thermophilum); test: ITC; IC construct in the syringe (200-400 µM) titrated into p150_(CC1B) or NudECC in the cell (20-40 µM); 25°C; 50 mM sodium phosphate pH 7.5, 50 mM NaCl, 1 mM sodium azide; two-step model for p150_(CC1B), one-site model for NudECC
[5] = target: Chaetomium thermophilum nuclear distribution protein NudE coiled-coil, NudECC (residues 1-190) (Chaetomium thermophilum); test: as above
[6] = target: Chaetomium thermophilum nuclear distribution protein NudE coiled-coil, NudECC (residues 1-190) (Chaetomium thermophilum); test: AUC; sedimentation equilibrium, dimer to monomers; three concentrations in the range 15-60 µM, 10,000, 14,000 and 18,000 rpm, 20°C; global fit to a monomer-dimer self-association model

Chaetomium thermophilum dynactin p150^Glued coiled-coil 1B, p150_(CC1B) (residues 478-680) (domain or fragment)
stoichiometry N [1]: 2
Kd [2]: 30 nM
stoichiometry N [2]: 2

Chaetomium thermophilum dynein intermediate chain IC_(1-88) (domain or fragment)
stoichiometry N (IC (1-88) chains per p150 (CC1B) dimer) [1]: 2
stoichiometry N [3]: 1
N of each step (two-step binding model) [4]: 0.5
stoichiometry N [4]: 1
Kd [5]: 300 nM
stoichiometry N [5]: 1

Chaetomium thermophilum nuclear distribution protein NudE coiled-coil, NudECC (residues 1-190) (domain or fragment)
Kd [6]: 200 nM
stoichiometry N [6]: 2

Chaetomium thermophilum dynein intermediate chain IC_(37-88) (domain or fragment)
Kd [4]: 20 µM
